In US20220251204A1 (AstraZeneca / MedImmune, published 2022):

Columns and labels:
[1] = biological target: T1, CTLA-4-Fc (human recombinant protein, R&D Systems) (human, UniProt P16410 37-162); experiment: Octet, same tip after PDL1-His and bispecific, then CTLA-4-Fc (100 nM per paragraph 296): concurrent binding
T1 construct: also called CTLA-4-Fc antigen; not shown: Fc part of the bought fusion
T1 sequence: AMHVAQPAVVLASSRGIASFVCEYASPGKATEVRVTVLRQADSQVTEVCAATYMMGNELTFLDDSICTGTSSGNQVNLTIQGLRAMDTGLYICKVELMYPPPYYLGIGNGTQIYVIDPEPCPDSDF

[2] = biological target: T2, human PD-1 antigen (soluble) (human, UniProt Q15116 25-170); experiment: SPR, BIAcore T200; antibody captured on mouse anti-huIgG-Fab, antigen injected
T2 construct: also called hu PD1; Biotinylated human PD-1
T2 sequence (Q15116 25-170 limits assumed): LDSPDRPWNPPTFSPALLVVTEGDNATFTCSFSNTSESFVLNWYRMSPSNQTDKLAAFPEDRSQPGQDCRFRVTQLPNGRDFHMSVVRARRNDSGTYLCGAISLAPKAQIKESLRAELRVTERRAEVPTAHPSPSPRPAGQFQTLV

cynomolgus PD-1 = biological target: T3, cynomolgus PD-1 (cynomolgus, UniProt B0LAJ3 25-170); experiment: as above
T3 construct: also called cyno PD1
T3 sequence (B0LAJ3 entry or part of it limits assumed): as the sequence (Q15116 25-170 limits assumed) above, with D2E, P10A, V19L, T35A, Q75R, T144A counted along it

[3] = biological target: T4, human CTLA-4 expressed on cells (human, UniProt P16410 36-223); experiment: cell-based or functional assay
T4 sequence: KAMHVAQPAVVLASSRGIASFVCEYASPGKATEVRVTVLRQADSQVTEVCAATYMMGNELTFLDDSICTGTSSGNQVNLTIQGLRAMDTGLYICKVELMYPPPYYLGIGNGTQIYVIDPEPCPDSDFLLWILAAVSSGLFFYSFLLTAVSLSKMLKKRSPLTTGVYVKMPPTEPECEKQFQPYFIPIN

cynomolgus TIM3 = biological target: T5, cynomolgus TIM3 (cynomolgus, UniProt A0A2K5U3G7 22-195); experiment: SPR, BIAcore T200; antibody captured on mouse anti-huIgG-Fab, antigen injected
T5 construct: also called Cyno TIM3
T5 sequence: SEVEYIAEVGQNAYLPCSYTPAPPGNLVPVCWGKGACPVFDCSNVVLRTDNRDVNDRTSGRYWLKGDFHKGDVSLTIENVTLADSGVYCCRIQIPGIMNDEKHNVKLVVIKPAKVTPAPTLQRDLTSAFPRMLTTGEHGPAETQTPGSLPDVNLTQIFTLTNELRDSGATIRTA

human TIM3 (soluble) = biological target: T6, human TIM3 (soluble) (human, UniProt Q8TDQ0 22-202); experiment: as above
T6 construct: also called Biotinylated human TIM3
T6 sequence: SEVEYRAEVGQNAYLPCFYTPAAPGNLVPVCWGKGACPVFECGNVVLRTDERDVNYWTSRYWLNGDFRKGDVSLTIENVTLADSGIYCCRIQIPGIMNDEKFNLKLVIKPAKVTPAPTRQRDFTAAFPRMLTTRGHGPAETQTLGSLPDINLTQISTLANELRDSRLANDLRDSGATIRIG

B1: Bis2 PD-L1/CTLA-4 (bispecific antibody, human IgG4 S228P, kappa)
heavy: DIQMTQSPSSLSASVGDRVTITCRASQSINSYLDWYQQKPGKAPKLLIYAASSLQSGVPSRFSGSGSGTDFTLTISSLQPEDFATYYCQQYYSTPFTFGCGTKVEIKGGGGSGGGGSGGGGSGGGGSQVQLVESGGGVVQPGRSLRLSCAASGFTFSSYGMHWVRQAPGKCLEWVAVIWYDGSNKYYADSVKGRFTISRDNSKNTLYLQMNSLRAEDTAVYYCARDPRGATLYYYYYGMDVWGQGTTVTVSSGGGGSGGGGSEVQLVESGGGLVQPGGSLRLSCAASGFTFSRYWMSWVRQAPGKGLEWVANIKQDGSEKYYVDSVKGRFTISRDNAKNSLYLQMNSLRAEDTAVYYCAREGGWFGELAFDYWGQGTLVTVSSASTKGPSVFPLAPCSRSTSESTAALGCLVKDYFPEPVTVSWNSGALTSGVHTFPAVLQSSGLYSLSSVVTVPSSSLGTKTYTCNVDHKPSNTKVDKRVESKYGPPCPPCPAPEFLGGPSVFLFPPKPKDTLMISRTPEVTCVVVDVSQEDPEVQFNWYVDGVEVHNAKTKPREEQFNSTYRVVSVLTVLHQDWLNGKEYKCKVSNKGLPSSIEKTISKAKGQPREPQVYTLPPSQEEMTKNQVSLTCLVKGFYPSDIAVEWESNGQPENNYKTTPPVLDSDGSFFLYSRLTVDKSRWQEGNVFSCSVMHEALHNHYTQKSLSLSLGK
light: EIVLTQSPGTLSLSPGERATLSCRASQRVSSSYLAWYQQKPGQAPRLLIYDASSRATGIPDRFSGSGSGTDFTLTISRLEPEDFAVYYCQQYGSLPWTFGQGTKVEIKRTVAAPSVFIFPPSDEQLKSGTASVVCLLNNFYPREAKVQWKVDNALQSGNSQESVTEQDSKDSTYSLSSTLTLSKADYEKHKVYACEVTHQGLSSPVTKSFNRGEC
- binding result [1]: binds

B2: Bis5 PD-L1/CTLA-4 (bispecific antibody, human IgG4 S228P, kappa)
heavy: EVQLVESGGGLVQPGGSLRLSCAASGFTFSRYWMSWVRQAPGKGLEWVANIKQDGSEKYYVDSVKGRFTISRDNAKNSLYLQMNSLRAEDTAVYYCAREGGWFGELAFDYWGQGTLVTVSSASTKGPSVFPLAPCSRSTSESTAALGCLVKDYFPEPVTVSWNSGALTSGVHTFPAVLQSSGLYSLSSVVTVPSSSLGTKTYTCNVDHKPSNTKVDKRVESKYGPPCPPCPAPEFLGGPSVFLFPPKPKDTLMISRTPEVTCVVVDVSQEDPEVQFNWYVDGVEVHNAKTKPREEQFNSTYRVVSVLTVLHQDWLNGKEYKCKVSNKGLPSSIEKTISKAKGQPREPQVYTLPPSQEEMTKNQVSLTCLVKGFYPSDIAVEWESNGGGGSGGGGSDIQMTQSPSSLSASVGDRVTITCRASQSINSYLDWYQQKPGKAPKLLIYAASSLQSGVPSRFSGSGSGTDFTLTISSLQPEDFATYYCQQYYSTPFTFGCGTKVEIKGGGGSGGGGSGGGGSGGGGSQVQLVESGGGVVQPGRSLRLSCAASGFTFSSYGMHWVRQAPGKCLEWVAVIWYDGSNKYYADSVKGRFTISRDNSKNTLYLQMNSLRAEDTAVYYCARDPRGATLYYYYYGMDVWGQGTTVTVSSGGGGSGGGGSGQPENNYKTTPPVLDSDGSFFLYSRLTVDKSRWQEGNVFSCSVMHEALHNHYTQKSLSLSLGK
light: EIVLTQSPGTLSLSPGERATLSCRASQRVSSSYLAWYQQKPGQAPRLLIYDASSRATGIPDRFSGSGSGTDFTLTISRLEPEDFAVYYCQQYGSLPWTFGQGTKVEIKRTVAAPSVFIFPPSDEQLKSGTASVVCLLNNFYPREAKVQWKVDNALQSGNSQESVTEQDSKDSTYSLSSTLTLSKADYEKHKVYACEVTHQGLSSPVTKSFNRGEC
- binding result [1]: binds

B3: Bis3 PD-L1/CTLA-4 (bispecific antibody, human IgG4 S228P, kappa)
heavy: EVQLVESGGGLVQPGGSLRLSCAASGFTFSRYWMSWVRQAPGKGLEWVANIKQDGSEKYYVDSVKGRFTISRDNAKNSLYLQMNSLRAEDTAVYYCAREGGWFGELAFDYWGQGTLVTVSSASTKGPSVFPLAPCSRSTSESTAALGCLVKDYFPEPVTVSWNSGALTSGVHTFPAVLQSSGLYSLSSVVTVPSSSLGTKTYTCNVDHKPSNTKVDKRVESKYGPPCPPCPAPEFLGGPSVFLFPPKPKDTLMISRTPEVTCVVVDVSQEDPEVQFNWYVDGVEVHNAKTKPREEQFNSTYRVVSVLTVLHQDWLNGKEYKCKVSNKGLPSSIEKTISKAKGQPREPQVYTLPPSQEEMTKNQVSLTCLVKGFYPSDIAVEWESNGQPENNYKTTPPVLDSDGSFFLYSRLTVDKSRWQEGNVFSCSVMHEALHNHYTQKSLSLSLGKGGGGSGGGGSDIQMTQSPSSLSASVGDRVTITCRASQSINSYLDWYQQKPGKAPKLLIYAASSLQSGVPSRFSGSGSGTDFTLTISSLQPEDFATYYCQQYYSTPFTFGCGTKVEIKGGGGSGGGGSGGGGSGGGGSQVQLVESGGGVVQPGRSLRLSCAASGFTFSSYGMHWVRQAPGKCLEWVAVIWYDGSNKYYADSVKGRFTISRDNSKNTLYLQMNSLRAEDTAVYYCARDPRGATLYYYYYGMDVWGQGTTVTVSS
light: EIVLTQSPGTLSLSPGERATLSCRASQRVSSSYLAWYQQKPGQAPRLLIYDASSRATGIPDRFSGSGSGTDFTLTISRLEPEDFAVYYCQQYGSLPWTFGQGTKVEIKRTVAAPSVFIFPPSDEQLKSGTASVVCLLNNFYPREAKVQWKVDNALQSGNSQESVTEQDSKDSTYSLSSTLTLSKADYEKHKVYACEVTHQGLSSPVTKSFNRGEC
- binding result [1]: binds

B4: LO115 IgG1-TM (antibody, V domains shown)
VH: EVQLVESGGGLVQPGGSLRLSCAASGFTFSDYGMHWVRQAPGKGLEWVAYISSGSYTIYSADSVKGRFTISRDNAKNSLYLQMNSLRAEDTAVYYCARRAPNSFYEYYFDYWGQGTTVTVSS
VL: QIVLTQSPATLSLSPGERATLSCSASSKHTNLYWSRHMYWYQQKPGQAPRLLIYLTSNRATGIPARFSGSGSGTDFTLTISSLEPEDFAVYYCQQWSSNPFTFGQGTKLEIK
notes: also called parental LO115 IgG1
- Kd [2]: 0.79 nM
- koff [2]: 0.000237 s⁻¹
- kon [2]: 302000 M⁻¹ s⁻¹
- Kd (cynomolgus PD-1): 0.81 nM
- koff (cynomolgus PD-1): 0.000238 s⁻¹
- kon (cynomolgus PD-1): 346000 M⁻¹ s⁻¹

B5: Bis5 PD-1/CTLA-4 (bispecific antibody, human IgG4 S228P, kappa)
heavy: EVQLVESGGGLVQPGGSLRLSCAASGFTFSDYGMHWVRQAPGKGLEWVAYISSGSYTIYSADSVKGRFTISRDNAKNSLYLQMNSLRAEDTAVYYCARRAPNSFYEYYFDYWGQGTTVTVSSASTKGPSVFPLAPCSRSTSESTAALGCLVKDYFPEPVTVSWNSGALTSGVHTFPAVLQSSGLYSLSSVVTVPSSSLGTKTYTCNVDHKPSNTKVDKRVESKYGPPCPPCPAPEFLGGPSVFLFPPKPKDTLMISRTPEVTCVVVDVSQEDPEVQFNWYVDGVEVHNAKTKPREEQFNSTYRVVSVLTVLHQDWLNGKEYKCKVSNKGLPSSIEKTISKAKGQPREPQVYTLPPSQEEMTKNQVSLTCLVKGFYPSDIAVEWESNGGGGSGGGGSDIQMTQSPSSLSASVGDRVTITCRASQSINSYLDWYQQKPGKAPKLLIYAASSLQSGVPSRFSGSGSGTDFTLTISSLQPEDFATYYCQQYYSTPFTFGCGTKVEIKGGGGSGGGGSGGGGSGGGGSQVQLVESGGGVVQPGRSLRLSCAASGFTFSSYGMHWVRQAPGKCLEWVAVIWYDGSNKYYADSVKGRFTISRDNSKNTLYLQMNSLRAEDTAVYYCARDPRGATLYYYYYGMDVWGQGTTVTVSSGGGGSGGGGSGQPENNYKTTPPVLDSDGSFFLYSRLTVDKSRWQEGNVFSCSVMHEALHNHYTQKSLSLSLGK
light: QIVLTQSPATLSLSPGERATLSCSASSKHTNLYWSRHMYWYQQKPGQAPRLLIYLTSNRATGIPARFSGSGSGTDFTLTISSLEPEDFAVYYCQQWSSNPFTFGQGTKLEIKRTVAAPSVFIFPPSDEQLKSGTASVVCLLNNFYPREAKVQWKVDNALQSGNSQESVTEQDSKDSTYSLSSTLTLSKADYEKHKVYACEVTHQGLSSPVTKSFNRGEC
- fold decrease in CTLA-4 reporter gene assay, potency [3]: ~3 fold

B6: PD-1(LO115)/TIM3(O13-1) DuetMab (bispecific antibody, human IgG1, kappa, lambda)
heavy 1: EVQLVESGGGLVQPGGSLRLSCAASGFTFSDYGMHWVRQAPGKGLEWVAYISSGSYTIYSADSVKGRFTISRDNAKNSLYLQMNSLRAEDTAVYYCARRAPNSFYEYYFDYWGQGTTVTVSSASTKGPSVFPLAPSSKSTSGGTAALGCLVKDYFPEPVTVSWNSGALTSGVHTFPAVLQSSGLYSLSSVVTVPSSSLGTQTYICNVNHKPSNTKVDKRVEPKSCDKTHTCPPCPAPEFEGGPSVFLFPPKPKDTLMISRTPEVTCVVVDVSHEDPEVKFNWYVDGVEVHNAKTKPREEQYNSTYRVVSVLTVLHQDWLNGKEYKCKVSNKALPASIEKTISKAKGQPREPQVCTLPPSREEMTKNQVSLSCAVKGFYPSDIAVEWESNGQPENNYKTTPPVLDSDGSFFLVSKLTVDKSRWQQGNVFSCSVMHEALHNHYTQKSLSLSPGK
light 1: QIVLTQSPATLSLSPGERATLSCSASSKHTNLYWSRHMYWYQQKPGQAPRLLIYLTSNRATGIPARFSGSGSGTDFTLTISSLEPEDFAVYYCQQWSSNPFTFGQGTKLEIKRTVAAPSVFIFPPSDEQLKSGTASVVCLLNNFYPREAKVQWKVDNALQSGNSQESVTEQDSKDSTYSLSSTLTLSKADYEKHKVYACEVTHQGLSSPVTKSFNRGEC
heavy 2: not shown
light 2: SYVLTQPPSVSVAPGKTARITCGGDNIGGKSVHWYQQKPGQAPVLVIYYDSDRPSGIPERFSGSNSGNTATLTISRVEAGDEADYYCQVLDRRSDHFLFGGGTKLTVLGQPKAAPSVTLFPPCSEELQANKATLVCLISDFYPGAVTVAWKADSSPVKAGVETTTPSKQSNNKYAASSYLSLTPEQWKSHRSYSCQVTHEGSTVEKTVAPTEVS
notes: also called PD-1/TIM3 DuetMab
- Kd [2]: 0.81 nM
- koff [2]: 0.000236 s⁻¹
- kon [2]: 295000 M⁻¹ s⁻¹
- Kd (cynomolgus TIM3): 25.6 nM
- koff (cynomolgus TIM3): 0.0761 s⁻¹
- kon (cynomolgus TIM3): 2.98e+06 M⁻¹ s⁻¹
- Kd (human TIM3 (soluble)): 4.15 nM
- koff (human TIM3 (soluble)): 0.00813 s⁻¹
- kon (human TIM3 (soluble)): 1.96e+06 M⁻¹ s⁻¹
- Kd (cynomolgus PD-1): 0.44 nM
- koff (cynomolgus PD-1): 0.000215 s⁻¹
- kon (cynomolgus PD-1): 490000 M⁻¹ s⁻¹
